T1: human CD24 (human, UniProt P25063 27-59, heavily glycosylated, GPI-anchored (as described in the background))
T1 chain: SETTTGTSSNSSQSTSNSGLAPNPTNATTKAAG

T2: Human CD24-mFc (human, UniProt P25063 27-59)
T2 chain: T1 chain

B1: 81A1F8 (antibody, V domains shown)
VH: EVQLQQSGPELVKPGASVKISCKATGYLFTGYYMNWVKQSPEKSLEWIGEINPNTGDTNNNQKFKAKATMTVDRSSSTAYMQLKRLTSEDSAVYYCVRRDYGTSLDYWGQGTTLTVSS
VL: DVQITQSPSYLAASPGETITINCRASKSINKYLAWYQEKPGKTNKLLIHSGSTLQSGIPSRFSGSRSGTDFTLTISNLEPEDFAMYYCQQHNEYPITFGAGTKLELK
B2: 110D4G4 (antibody, V domains shown)
VH: EVQLQQSGPGLVKPGASVKISCRASGYLFTGYYMNWVKQSPEKSLEWIGEINPNTGDPRYDQKFKAKATLTVDRSSSTAYMHLKSLTSEDSAVYFCARRDYGTSLDYWGQGTTLTVTS
VL: B1 VL with N30S, H49Y, R66G, T69S, N77S, I96L
B3: 33E7E12 (antibody, V domains shown)
VH: EVKLEESGGGLVQPGGSMKLSCFVSGFTFSNSWMNWVRQSPEKGLEWVAQIQLKSDNYATRYVESVRGRFIISRDDSKSSVSLQMNNLRTEDTGIYYCSSGTDYWGQGTTLTVSS
VL: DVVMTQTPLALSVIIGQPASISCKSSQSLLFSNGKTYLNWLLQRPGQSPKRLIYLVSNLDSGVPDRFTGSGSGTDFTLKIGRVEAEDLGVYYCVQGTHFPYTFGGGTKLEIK
B4: 101H9G9A2 (antibody, V domains shown)
VH: QVQLLQPGAELVRPGSSVKLSCKASDYTFTSYWMDWVKQRPGQGLEWIGNIYPSDSKTHYNQKFKDKATLTVDKSSSTAYMQLNSLTSEDSAVYYCARRGGYYAYAMDYWGQGTSVTVSS
VL: DIVMTQSPSSLSVSAGEKVTMRCKSSQSLLNSGNQDNYLAWYQQKPGQPPKLLLYGARIRESGVPDRFIGSGSGTDFTLTISSVQAEDLAVYYCQNDHSYPYTFGGGTKVEIK
B5: ch81A1F8-hIgG4 (antibody, V domains shown)
VH: B1 VH
VL: B1 VL
B6: ch110D4G4-hIgG4 (antibody, V domains shown)
VH: B2 VH
VL: B1 VL with N30S, H49Y, R66G, T69S, N77S, I96L
B7: 107D10D11-hIgG (antibody, V domains shown)
VH: QIQLKQSGPGLVQPSQSLSITCTVSGFSLSSYGVNWVRQSPGKGLEWLGMIWSGGNTDYNAAFISRVSFTKDNSKSQVFFTMNSLQADDTAIYYCARIWYYGMDYWGQGTSVTVSS
VL: DIVMTQSQKFMSTTVGDRVSITCKASQNVGTAVAWFQQKPGQSPKILIYSASIRYPGVPDRFTGSGSGTDFTLTTSNVQSEDLADYFCLQYITFPRTFGGGTKLYIK
B8: 101H9G9A2-hIgG (antibody, V domains shown)
VH: B4 VH
VL: B4 VL
B9: 107D10D11 (antibody, V domains shown)
VH: B7 VH
VL: B7 VL
B10: 81A1F8-hIgG1 (antibody, V domains shown)
VH: B1 VH
VL: B1 VL
B11: 81A1F8-VH-11/VL-11 (antibody, V domains shown)
VH: QVQLVQSGAEVKKPGASVKVSCKASGYLFTGYYMNWVRQAPGQGLEWMGEINPNTGDTNNNQKFKARVTMTVDRSISTAYMELSRLRSDDTAVYYCVRRDYGTSLDYWGQGTLVTVSS
VL: DVQITQSPSSLSASVGDRVTITCRASKSINKYLAWYQQKPGKAPKLLIHSGSTLQSGVPSRFSGSRSGTDFTLTISSLQPEDFATYYCQQHNEYPITFGQGTKLEIK
B12: 81A1F8-VH-31/VL-11 (antibody, V domains shown)
VH: B11 VH with G44R, M70I, I76A, R85S, D89E
VL: B11 VL
B13: 81A1F8-VH-21/VL-31 (antibody, V domains shown)
VH: B11 VH with I76T, R85S, D89E
VL: B11 VL with A43V
B14: 81A1F8-VH-21/VL-41 (antibody, V domains shown)
VH: B11 VH with I76T, R85S, D89E
VL: B11 VL with S10T, D70E, E81D
B15: 81A1F8-VH-21/VL-21 (antibody, V domains shown)
VH: B11 VH with I76T, R85S, D89E
VL: B11 VL with S10F, D70E
B16: 81A1F8-VH-21/VL-11 (antibody, V domains shown)
VH: B11 VH with I76T, R85S, D89E
VL: B11 VL
B17: 81A1F8-VH-11/VL-41 (antibody, V domains shown)
VH: B11 VH
VL: B11 VL with S10T, D70E, E81D
B18: 81A1F8-VH-31/VL-41 (antibody, V domains shown)
VH: B11 VH with G44R, M70I, I76A, R85S, D89E
VL: B11 VL with S10T, D70E, E81D
B19: 81A1F8-VH-31/VL-31 (antibody, V domains shown)
VH: B11 VH with G44R, M70I, I76A, R85S, D89E
VL: B11 VL with A43V
B20: 81A1F8-VH-11/VL-21 (antibody, V domains shown)
VH: B11 VH
VL: B11 VL with S10F, D70E
B21: 73H5-1G2 (antibody, V domains shown)
VH: QVQLKQSGPGLVQPSQSLSITCTVSGFSLTNYGVHWIRQSPGKGLEWLGVIWRGGSTDYNAAFMSRLSITKDNSKSQVFFQMNSLQAADTAIYYCANNYGYDCFAYWGQGTLVTVSA
VL: B1 VL with N30I, H49Y, R66G, S76T, N77S, I96L, K103R
B22: 58F10-1F6 (antibody, V domains shown)
VH: EVQLRQSGPELVKPGAAVKISCKASGYSFTGYHMNWVKQSPEKSLEWIGEINPITSGITYNQIFKAKATLTVDKSSSTAYLQLKSLTSEDSAVYYCTRRDYGTSLDYWGQGTTLTVSS
VL: DIQMTQITSSLSASLGDRVTITCRASQDISNYLNWYQQKPDGTVKLLIYYTSRLLSGVPSRFSGSGSGTDYSLTISNLEQEDIATYFCQQDHTLPRTFGGGTKLEIR
B23: 56A7E3 (antibody, V domains shown)
VH: EVQLQQSGPELVKPGASVKIPCKASGYTFTAYNMDWVKQSHGMSLEWIGDINPINGGTIYNQNFEGKATLTVDKSSSTAYLELRSLTSEDTAVYYCARRGSYYYGSSHYALDFWGQGTSVSVSS
VL: B22 VL
B24: 71A4F12 (antibody, V domains shown)
VH: B23 VH with I54N, G57D, I59V, E65K, L81M
VL: B22 VL with D17N, T22S, S30R, H92N, T93S, K103R
B25: 100F2E3 (antibody, V domains shown)
VH: B4 VH with L5Q, A24T, Y60S, K65R, A104G
VL: B4 VL with R22S, L54I, R58S, I69T, V110L

Numbering of substitutions follows the chain as printed.

The first assay addresses T1, human CD24. Nature of the assay: FACS binding; DoHH2 cells.
The molecule B1 showed a half-maximal effective concentration (EC50) of 0.819 nM.

Consider B2, for which a half-maximal effect (EC50) was put at 0.61 nM.

In the case of B3, the response was half-maximal at 5.08 nM (EC50).

Molecule B4 gave an EC50 of 0.218 nM.

The target of a further assay is T2, Human CD24-mFc. As to the kind of experiment: SPR (BIAcore); hIgG4.
On to B5, for which the Kd stood at 2.23 nM.

The next assay addresses T1, human CD24. Nature of the assay: FACS binding; Huh7 cells.
B6 yielded an EC50 of 1.72 nM.

In the case of B7, it took 1.39 nM to reach a half-maximal effect (EC50). The EC50 values of the last two molecules are within 1.5-fold of each other.

For the molecule B8, it took 0.815 nM to reach a half-maximal effect (EC50). This EC50 lies about 1.7-fold lower than the previous one.

In a further assay the target is T1, human CD24. As to the kind of experiment: FACS binding; MCF7 cells.
Molecule B5 yielded a 50% effective concentration (EC50) of 4.09 nM.

Regarding B7, the EC50 was 2.19 nM.

Molecule B8 returned an EC50 of 2.2 nM.

The next assay deals with T2, Human CD24-mFc. Nature of the assay: SPR (BIAcore).
On to B1, for which binding was put at a Kd of 0.095 nM. In other words, the picomolar range.

B2 returned a Kd of 0.124 nM.

With B9, binding was put at a Kd of 0.762 nM.

For the molecule B3, the Kd stood at 3.08 nM.

B4 registered a Kd of 1.24 nM.

A further assay addresses T2, Human CD24-mFc. Nature of the assay: SPR (BIAcore); hIgG1.
For the molecule B10, binding was characterised by a dissociation constant (Kd) of 2.29 nM.

The next assay deals with T2, Human CD24-mFc. Nature of the assay: BLI (Gatorprime).
For B5, the Kd is 0.241 nM.

Regarding B11, the affinity, expressed as Kd, was 0.0204 nM.

B12 came in with a Kd of 0.247 nM.

As to B13, the affinity, expressed as Kd, was 0.712 nM.

For B14, the Kd came out at 0.525 nM.

In the case of B15, the Kd came out at 0.0819 nM.

For B16, the Kd turned out to be 0.0158 nM.

B17 came in with a Kd of 0.619 nM.

In the case of B18, binding was put at a Kd of 21600 nM.

Regarding B19, the Kd stood at 1.11 nM.

For B20, the affinity, expressed as Kd, was 0.139 nM. Against the preceding molecule, the Kd is about 8-fold lower.

The next assay addresses T1, human CD24. Nature of the assay: FACS binding; Nalm6 cells.
Molecule B21 had an EC50 of 108 nM. In other words, the sub-micromolar range.

The molecule B1 registered an EC50 of 11.4 nM.

B2 showed an EC50 of 24.6 nM.

With B3, the EC50 was determined as 21.5 nM.

B22: a half-maximal effect (EC50) was put at 70.6 nM.

With B23, the midpoint of the response, the EC50, lay at 29.2 nM.

In turn, B24 yielded an EC50 of 24.9 nM.

For B25, a half-maximal effect (EC50) was put at 7.84 nM.

In the case of B4, the EC50 was determined as 2.55 nM. Compared with the last molecule, the EC50 is about 3.1-fold lower.
